Series [1] concerns the target HBeAg used for crystallization: Cp(-10)149, C48A, C107A, G123A (Hepatitis B virus) (UniProt P03147). Put plainly: crystal structure.
The series “AUC” concerns the molecule itself. Put plainly: AUC.

We go through two molecules from paper PMC3544974 (Structure (London, England : 1993), 2012).

For the molecule “HBeAg used for crystallization: Cp(-10)149, C48A, C107A, G123A (from UniProt P03147 1-149) (natural protein)”, the stoichiometry N (usually a count of units in the complex or per binding partner) in series [1] is 2.

B1: HBeAg construct Cp(-10)149, C48A, C107A (natural protein)
chain: SKLCLGWLWGMDIDPYKEFGATVELLSFLPSDFFPSVRDLLDTAAALYRDALESPEHASPHHTALRQAILCWGDLMTLATWVGTNLEDPASRDLVVSYVNTNVGLKFRQLLWFHISALTFGRETVLEYLVSFGVWIRTPPAYRPPNAPILSTLPETTVV
Turning to B1, the “stoichiometry N” value in “AUC” came out at 2.
